Source: patent US20220411514A1, “ANTI-GAL3 ANTIBODIES AND METHODS OF USE FOR INSULIN RESISTANCE” (TrueBinding, Inc., priority 2021, published 2022)
Substitutions are numbered along the chain they refer to.

B1: 20D11.2C6 (antibody, V domains shown)
VH: EVQLQQSGPELVKPGASVKISCKASGYTFTDFYINWVKQSHGKSLEWIGDINPKNGGINYNPKFKIKATLTVDKSSSTSYMDLRGLTSEDSAVYYCTSGYGFPYWGQGTLVTVSA
VL: DIQMNQSPSSLSASLGDTITITCRASQNIYIWLSWYQQKPGNIPKLLIYKASNLHTGVPSRFSGSGSGTDFTLTISTLQPEDIATYFCLQGQSYPLTFGAGTKLEMKR
B2: 2D10.2B2 (antibody, V domains shown)
VH: QVQLQQSGPELVKPGASVKISCKASGYTFTDYYINWVKQRPGQGLEWIGWIYPGSNDTKYNEKFKGKATLTVDTSSSTAYMQLGSLTSEDSAVYFCANYFGCSGWFFDVWGTGTTVTVSS
VL: DIVMTQAAFSNPVTLGTSASISCRSSKSLLHSDGITYLYWYLQRPGQSPQLLIYRMSNLASGVPDRFSGSGSGTDFTLRISRVEAEDVGVYYCAQMIEFPLTFGAGTILELKR
B3: 4A11.2B5 (antibody, V domains shown)
VH: QVQLQQSGPELVKPGASVKISCKASGYSFTNYYIHWVKQRPGQGLEWIGWIYPGSGNTNYNEKFKGKATLTADTSSSTTNMQLSSLTSEDSAVYYCSTAPGGFDVWGSGTTVTVSS
VL: B2 VL with I97L, I108K
B4: 6H6.2D6 (antibody, V domains shown)
VH: QIQLVQSGPELKKPGETVKISCKASGYTFTTYGMSWVKQAPGKGLKWMAWINTYSGVPTYADDFKGRFAFSLETSASTAYLQINNLTNEDTATYFCARGPYAMDYWGQGTSVTVSS
VL: DIQMTQTTSSLSASLGDRVTISCSASQGISNYLNWYQQKPDGTVKLLIYYTSSLHSGVPSRFSGSGSGTDYSLTISNLEPEDIATYYCQQYSELPYTFGSGTKLEIKR

Biological target: Human Galectin-3 protein (Acro Biosystems, GA3-H5129) (human) (UniProt P17931)
Test: ELISA, INSR binding to coated Gal3 with 3 ug/mL antibody

Chain of Human Galectin-3 protein (Acro Biosystems, GA3-H5129) (human) (P17931 2-250): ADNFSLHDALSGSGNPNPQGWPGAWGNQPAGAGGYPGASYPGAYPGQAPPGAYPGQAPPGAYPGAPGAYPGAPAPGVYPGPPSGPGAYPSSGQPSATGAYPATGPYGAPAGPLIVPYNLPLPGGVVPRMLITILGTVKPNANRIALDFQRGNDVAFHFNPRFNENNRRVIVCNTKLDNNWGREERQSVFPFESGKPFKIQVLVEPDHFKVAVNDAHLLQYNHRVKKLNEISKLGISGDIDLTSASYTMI

Row | Binder | Gal3-INSR binding left, % of unblocked sample
1 | B1 | < 5%
2 | B2 | < 5%
3 | B3 | < 5%
4 | B4 | < 5%
